Assay results from article PMC3800186 (Biochemistry, 2013).
Numbered stars: 1 amine (or outer) side, 2 acyl side, 3 side chain; on linkers, the order of the positions; unused ones are H or OH. Square brackets hold non-standard residues; d marks the D form. Ends that are not written are not given here. X3 = Pro(4S-(4-(4-aminophenyl)-1,2,3-triazol-1-yl)), O=C([C@@H]1C[C@H](n2cc(-c3ccc(N[*:3])cc3)nn2)CN1[*:1])[*:2]; Cit = NC(=O)NCCC[C@H](N)C(=O)O

Biological target: Full-length HIV-1 YU2 gp120 (HIV-1 YU2, UniProt P35961 32-498)
Assay: ELISA

[Cit]NNI[X3]WS-NH2 [UM25 peptide triazole]
IC50: 18 µM
